Experimental data as given in patent US20080219974A1 (published 2008).
Positions count from the first letter of the chain named. Blank lines part the entries; values can stand above or below the binder they belong to.

How the values were obtained:
[1] = target: T1, Human HM1.24 on RPMI 8226 multiple myeloma cells (human, UniProt Q10589 1-161); experiment: flow cytometry on HM1.24+ RPMI 8226 cells
[2] = target: T2, His-tagged HM1.24 antigen, residues N49-A163 of the extracellular domain (human, UniProt Q10589 49-163)
T2 sequence: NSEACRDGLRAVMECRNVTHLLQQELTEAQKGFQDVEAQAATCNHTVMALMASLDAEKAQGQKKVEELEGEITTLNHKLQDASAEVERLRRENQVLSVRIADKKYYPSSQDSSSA

[3] = target: T1, Human HM1.24 on RPMI 8226 multiple …; experiment: flow cytometry on RPMI 8226 multiple myeloma cells, R-PE anti-human IgG F

T1 sequence (Q10589 1-161 limits assumed): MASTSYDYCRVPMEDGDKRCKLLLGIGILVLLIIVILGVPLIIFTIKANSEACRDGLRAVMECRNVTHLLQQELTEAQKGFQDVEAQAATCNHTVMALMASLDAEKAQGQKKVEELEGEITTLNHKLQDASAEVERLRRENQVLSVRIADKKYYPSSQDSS

B1: HM1.24_H2L2 (antibody, human IgG1, kappa, V domains shown)
VH: EVQLVESGGGLVKPGGSLRLSCAASGYTFTPYWMQWVRQAPGKGLEWMGSIFPGDGDTRYSQSFQGQVTISADKSISTAYMELSSLRSEDTAVYYCARGLRRGGYYFDYWGQGTLVTVSS
VL: DIVMTQSPSSLSASVGDRVTITCQASQDVNTAVAWYQQKPDQSPKLLIYSASNRYTGVPDRITGSGSGTDFTLTISSLQAEDVAVYYCQQHYSTPFTFGSGTKLEIKR
- binding result [1]: binds

B2: HM1.24_H1.1 heavy chain variant with HM1.24_L4 light chain (antibody, human IgG1, kappa, V domains shown)
VH: QVQLVQSGAEVKKPGASVKVSCKASGYTFTPYWMQWVRQAPGQGLEWMGSIFPGEGDTRYSQSFQGQVTISADKSISTAYMELSRLRSDDTAVYYCARGLRRGGYYFDYWGQGTLVTVSS
VL: DIVMTQSPLSLPVTLGQPASISCKASQDVNTAVAWYLQKPGKSPKLLIYSASNRYTGVPDRITGSGSGTDFTLKISRVEAEDVGVYYCQQHYSTPFTFGSGTKLEIKR
- binding result [2]: binds

B3: HM1.24_H1L2 (antibody, human IgG1, kappa, V domains shown)
VH: B2 VH with E55D
VL: B1 VL
- binding result [1]: binds

B4: HM1.24_H1.4 heavy chain variant with HM1.24_L4 light chain (antibody, human IgG1, kappa, V domains shown)
VH: B2 VH with E55D, G56A
VL: B2 VL
- binding result [2]: binds

B5: HM1.24_H2.3 heavy chain variant with HM1.24_L4 light chain (antibody, human IgG1, kappa, V domains shown)
VH: B1 VH with G56S
VL: B2 VL
- binding result [2]: binds

B7: HM1.24_H1.2 heavy chain variant with HM1.24_L4 light chain (antibody, human IgG1, kappa, V domains shown)
VH: B2 VH with E55S
VL: B2 VL
- binding result [2]: binds

B11: HM1.24_H0L0 (parent antibody in the flow cytometry screen of Example 3) (antibody, V domains shown)
VH: QVQLQQSGAELARPGASVKLSCKASGYTFTPYWMQWVKQRPGQGLEWIGSIFPGDGDTRYSQKFKGKATLTADKSSSTAYMQLSILAFEDSAVYYCARGLRRGGYYFDYWGQGTTLTVSS
VL: DIVMTQSHKFMSTSVGDRVSITCKASQDVNTAVAWYQQKPGQSPKLLIYSASNRYTGVPDRITGSGSGTDFTFTISSVQAEDLALYYCQQHYSTPFTFGSGTKLEIK
- binding result [1]: binds

Continued, values first:

- binding result [2]: binds
B6: HM1.24_H2.1 heavy chain variant with HM1.24_L4 light chain (antibody, human IgG1, kappa, V domains shown)
VH: B1 VH with D55E
VL: B2 VL

- binding result [2]: binds
B8: HM1.24_H2.4 heavy chain variant with HM1.24_L4 light chain (antibody, human IgG1, kappa, V domains shown)
VH: B1 VH with G56A
VL: B2 VL

- binding result [2]: binds
B9: HM1.24_H1.3 heavy chain variant with HM1.24_L4 light chain (antibody, human IgG1, kappa, V domains shown)
VH: B2 VH with E55D, G56S
VL: B2 VL

- binding result [3]: binds
B10: HM1.24_H0L0_IgG1_WT (antibody, V domains shown)
VH: B11 VH
VL: DIVMTQSHKFMSTSVGDRVSITCKASQDVNTAVAWYQQKPGQSPKLLIYSASNRYTGVPDRITGSGSGTDFTFTISSVQAEDLALYYCQQHYSTPFTFGSGTKLEIKR
